How the values were obtained:
[1] = Flocculation in human serum; set-up: key to Serum Macro (precipitation/coagulation score) / Serum Micro (precipitation/coagulation score) / Serum Pellet (score): 0=negative; 1=very slight precipitation or pellet; 2=minimal precipitation or pellet; 3=moderate precipitation or pellet; 4=significant precipitation or pellet
Protocol: Test article dosing solutions (3 concentrations) and the placebo (3 concentrations) were mixed with equal volumes of human plasma and serum from a donor. […] The placebo was the same as the test article except there was no ATB200 rhGAA.
One ml of each dose of test article or placebo, was mixed with an equal volume of plasma, serum and saline. Samples were incubated for 30 minutes at room temperature. After incubation the tubes were examined macroscopically and microscopically for precipitation or coagulation. An aliquot from each tube was centrifuged at 14,000 rpm in a microcentrifuge for 10 minutes. Each tube was examined for the presence or absence of a pellet. Precipitation/coagulation and pellets were scored as follows: • 0=negative • 1=very slight precipitation or pellet • 2=minimal precipitation or pellet • 3=moderate precipitation or pellet • 4=significant precipitation or pellet

[2] = Plasma total GAA protein pharmacokinetics, phase 1/2 study in adults with Pompe disease; assay type: in vivo, human; conditions: for Total GAA Protein AUC0-t / Total GAA Protein AUC0-∞ / Total GAA Protein Cmax: n = 8, geometric mean
Protocol: Mean total GAA protein and miglustat PK results from the first 8 Cohort 1 patients through Visit 9 and the first 2 Cohort 3 patients were assessed.

[3] = Cohort 1, 5 mg/kg alone, n = 8, arithmetic mean
[4] = Cohort 1, 10 mg/kg alone, n = 8, arithmetic mean
[5] = Cohort 1, 20 mg/kg alone, n = 8, arithmetic mean
[6] = Cohort 1, ATB200 20 mg/kg + miglustat high MD, n = 8, arithmetic mean
[7] = Cohort 1, ATB200 20 mg/kg + miglustat high SD, n = 7, arithmetic mean
[8] = Cohort 1, ATB200 20 mg/kg + miglustat low MD, n = 8, arithmetic mean
[9] = Cohort 1, ATB200 20 mg/kg + miglustat low SD, n = 8, arithmetic mean
[10] = Cohort 3, ATB200 20 mg/kg + miglustat high MD (first Cohort 3 line), n = 2, arithmetic mean
[11] = Cohort 3, ATB200 20 mg/kg + miglustat high MD (second Cohort 3 line), n = 2, arithmetic mean

ATB200: recombinant human acid α-glucosidase expressed in CHO cells with increased content of M6P-bearing N-glycans
Serum Macro (precipitation/coagulation score) ([1]; Final concentration 300 μg/mL): 0 | Serum Micro (precipitation/coagulation score) ([1]; Final concentration 300 μg/mL): 0 | Serum Pellet (score) ([1]; Final concentration 300 μg/mL): 0 | Serum Macro (precipitation/coagulation score) ([1]; Final concentration 600 μg/mL): 0 | Serum Micro (precipitation/coagulation score) ([1]; Final concentration 600 μg/mL): 0 | Serum Pellet (score) ([1]; Final concentration 600 μg/mL): 0 | Serum Macro (precipitation/coagulation score) ([1]; Final concentration 1000 μg/mL): 0 | Serum Micro (precipitation/coagulation score) ([1]; Final concentration 1000 μg/mL): 0 | Serum Pellet (score) ([1]; Final concentration 1000 μg/mL): 0 | pellet after centrifugation ([1]; human serum, 14,000 rpm 10 minutes): no pellets were observed | precipitation, macroscopic and microscopic ([1]; human serum, each ATB200 concentration, 30 minutes at room temperature): No precipitation was observed macroscopically or microscopically | increase of distribution half-life (α-phase) ([2]; ATB200 20 mg/kg with miglustat 260 mg relative to ATB200 alone): 45% | increase of total GAA protein exposure (AUC) ([2]; ATB200 20 mg/kg with miglustat 260 mg relative to ATB200 alone at 20 mg/kg): approximately 25% | dose proportionality of plasma total GAA protein ([2]; ATB200 given alone, 5, 10, 20 mg/kg): increases in a slightly greater-than-dose-proportional manner | Total GAA Protein CLT [2, 3]: 2.1 L/h | Total GAA Protein VSS [2, 3]: 4.62 L | Total GAA Protein αt1/2 [2, 3]: 1.1 h | Total GAA Protein βt1/2 [2, 3]: 1.9 h | Total GAA Protein AUC0-t ([2]; Cohort 1, 5 mg/kg alone): 215 ng·h/mL | Total GAA Protein AUC0-∞ ([2]; Cohort 1, 5 mg/kg alone): 218 ng·h/mL | Total GAA Protein Cmax ([2]; Cohort 1, 5 mg/kg alone): 61 ng/mL | Total GAA Protein tmax ([2]; Cohort 1, 5 mg/kg alone, n = 8, median): 3.8 h | Total GAA Protein CLT [2, 4]: 1.59 L/h | Total GAA Protein VSS [2, 4]: 3.87 L | Total GAA Protein αt1/2 [2, 4]: 1.3 h | Total GAA Protein βt1/2 [2, 4]: 1.6 h | Total GAA Protein AUC0-t ([2]; Cohort 1, 10 mg/kg alone): 578 ng·h/mL | Total GAA Protein AUC0-∞ ([2]; Cohort 1, 10 mg/kg alone): 584 ng·h/mL | Total GAA Protein Cmax ([2]; Cohort 1, 10 mg/kg alone): 144 ng/mL | Total GAA Protein CLT [2, 5]: 1.22 L/h | Total GAA Protein VSS [2, 5]: 3.52 L | Total GAA Protein αt1/2 [2, 5]: 1.5 h | Total GAA Protein βt1/2 [2, 5]: 2.1 h | Total GAA Protein AUC0-t ([2]; Cohort 1, 20 mg/kg alone): 1508 ng·h/mL | Total GAA Protein AUC0-∞ ([2]; Cohort 1, 20 mg/kg alone): 1512 ng·h/mL | Total GAA Protein Cmax ([2]; Cohort 1, 20 mg/kg alone): 345 ng/mL | Total GAA Protein CLT [2, 6]: 0.98 L/h | Total GAA Protein αt1/2 [2, 6]: 2.1 h | Total GAA Protein βt1/2 [2, 6]: 2.5 h | Total GAA Protein CLT [2, 7]: 0.98 L/h | Total GAA Protein αt1/2 [2, 7]: 2.3 h | Total GAA Protein βt1/2 [2, 7]: 2.7 h | Total GAA Protein CLT [2, 8]: 1.02 L/h | Total GAA Protein αt1/2 [2, 8]: 1.9 h | Total GAA Protein βt1/2 [2, 8]: 2.5 h | Total GAA Protein CLT [2, 9]: 1.09 L/h | Total GAA Protein αt1/2 [2, 9]: 1.8 h | Total GAA Protein βt1/2 [2, 9]: 2.4 h | Total GAA Protein CLT [2, 10]: 0.69 L/h | Total GAA Protein αt1/2 [2, 10]: 2 h | Total GAA Protein βt1/2 [2, 10]: 2.4 h | Total GAA Protein CLT [2, 11]: 0.66 L/h | Total GAA Protein αt1/2 [2, 11]: 1.9 h | Total GAA Protein βt1/2 [2, 11]: 2.6 h | volume of distribution ([2]; in vivo): relatively high volume of distribution

Reference: US10512676B2, “Formulations comprising recombinant acid alpha-glucosidase” (Amicus Therapeutics, Inc., priority 2016, dated 2019)
